Series [1] deals with the molecule itself. Description: AUC; sedimentation equilibrium, 30 °C, standard buffer (50 mM potassium phosphate, 20 mM NaCl, 0.1 mM EDTA, pH 6.4) without NaN3; three loading concentrations (SAMwt 60, 120, 300 µM; SAMlg 31, 64, 98 µM) at several speeds; global fit to a monomer-dimer equilibrium; dimer to monomers.
Series [2] concerns the molecule itself. Briefly: MST; Alexa Fluor 488 labelled protein kept constant (SAMwt 70 nM, SAMlg 60 nM), total protein varied (SAMwt 1.1-824 µM, SAMlg 0.2-250 µM); standard buffer pH 6.4, room temperature; fit to a monomer-dimer equilibrium; dimer to monomers.

B1: SLy1 SAM domain construct SAMlg (SLy1 residues G249-E321 preceded by a glycine-proline tag) (domain or fragment, mouse)
chain: GPGKRPKPKTLHELLERIGLEEHTSTLLLNGYQTLEDFKELRETHLNELNIMDPQHRAKLLTAAELLLDYDTGSE
notes: glycine-proline left from the tag after PreScission cleavage; SLy1 (SASH3), murine, UniProtKB Q8K352, residues 249-321; 75 residues; In MST 60 nM of the protein carried amine-reactive Alexa Fluor 488; For DOSY the protein was 15N labelled; also called N-terminally extended SLy1 SAM domain construct; source: E. coli BL21(DE3), GST fusion, purified (Glutathione Sepharose, PreScission cleavage, …)
As usually defined, the Kd is the free concentration of one partner at which half of the binding sites on the other are occupied at equilibrium, for simple one-to-one binding. A word on the stoichiometry N: it is a count of units in the complex or per binding partner. For B1, the Kd turned out to be 2.2 µM in series [1] and 5.4 ± 1.4 µM in series [2]. Further, the “stoichiometry N” value in series [1] stood at 2.

(Values after article PMC6328559, “Structure of the SLy1 SAM homodimer reveals a new interface for SAM domain self-association” (Scientific Reports, 2019).)
